IntAct's records for PubMed 12522104

B1: Peroxisome proliferator-activated receptor gamma coactivator 1-alpha (Homo sapiens), Q9UBK2 (parent)
chain: MAWDMCNQDSESVWSDIECAALVGEDQPLCPDLPELDLSELDVNDLDTDSFLGGLKWCSDQSEIISNQYNNEPSNIFEKIDEENEANLLAVLTETLDSLPVDEDGLPSFDALTDGDVTTDNEASPSSMPDGTPPPQEAEEPSLLKKLLLAPANTQLSYNECSGLSTQNHANHNHRIRTNPAIVKTENSWSNKAKSICQQQKPQRRPCSELLKYLTTNDDPPHTKPTENRNSSRDKCTSKKKSHTQSQSQHLQAKPTTLSLPLTPESPNDPKGSPFENKTIERTLSVELSGTAGLTPPTTPPHKANQDNPFRASPKLKSSCKTVVPPPSKKPRYSESSGTQGNNSTKKGPEQSELYAQLSKSSVLTGGHEERKTKRPSLRLFGDHDYCQSINSKTEILINISQELQDSRQLENKDVSSDWQGQICSSTDSDQCYLRETLEASKQVSPCSTRKQLQDQEIRAELNKHFGHPSQAVFDDEADKTGELRDSDFSNEQFSKLPMFINSGLAMDGLFDDSEDESDKLSYPWDGTQSYSLFNVSPSCSSFNSPCRDSVSPPKSLFSQRPQRMRSRSRSFSRHRSCSRSPYSRSRSRSPGSRSSSRSCYYYESSHYRHRTHRNSPLYVRSRSRSPYSRRPRYDSYEEYQHERLKREEYRREYEKRESERAKQRERQRQKAIEERRVIYVGKIRPDTTRTELRDRFEVFGEIEECTVNLRDDGDSYGFITYRYTCDAFAALENGYTLRRSNETDFELYFCGRKQFFKSNYADLDSNSDDFDPASTKSKYDSLDFDSLLKEAQRSLRR
partner: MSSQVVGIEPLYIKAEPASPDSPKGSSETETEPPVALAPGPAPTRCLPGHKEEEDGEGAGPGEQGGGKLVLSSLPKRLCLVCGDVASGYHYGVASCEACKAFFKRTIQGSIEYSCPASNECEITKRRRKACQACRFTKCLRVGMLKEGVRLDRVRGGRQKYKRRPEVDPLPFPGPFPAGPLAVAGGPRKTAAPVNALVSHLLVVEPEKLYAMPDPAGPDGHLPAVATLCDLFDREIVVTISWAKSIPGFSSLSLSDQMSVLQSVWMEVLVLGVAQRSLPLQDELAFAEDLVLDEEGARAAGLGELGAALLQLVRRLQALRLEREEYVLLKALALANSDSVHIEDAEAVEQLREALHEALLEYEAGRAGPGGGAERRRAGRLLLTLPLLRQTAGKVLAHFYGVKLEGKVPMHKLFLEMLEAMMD
B2: Peroxisome proliferator-activated receptor gamma coactivator 1-alpha (Homo sapiens), Q9UBK2 (parent)
chain: B1 chain

Columns and labels:
err1_human ESRRA, P11474 [1] = variants of: B1; conditions: with err1_human ESRRA
err1_human ESRRA, P11474 [2] = variants of: B1; conditions: with err1_human ESRRA; remark: listed apart in the source
rxra_human RXRA, P19793 = variants of: B2; conditions: with rxra_human RXRA
esr1_human ESR1, P03372 = variants of: B2; conditions: with esr1_human ESR1, P03372
Sequence of esr1_human ESR1, P03372 (P03372 whole entry): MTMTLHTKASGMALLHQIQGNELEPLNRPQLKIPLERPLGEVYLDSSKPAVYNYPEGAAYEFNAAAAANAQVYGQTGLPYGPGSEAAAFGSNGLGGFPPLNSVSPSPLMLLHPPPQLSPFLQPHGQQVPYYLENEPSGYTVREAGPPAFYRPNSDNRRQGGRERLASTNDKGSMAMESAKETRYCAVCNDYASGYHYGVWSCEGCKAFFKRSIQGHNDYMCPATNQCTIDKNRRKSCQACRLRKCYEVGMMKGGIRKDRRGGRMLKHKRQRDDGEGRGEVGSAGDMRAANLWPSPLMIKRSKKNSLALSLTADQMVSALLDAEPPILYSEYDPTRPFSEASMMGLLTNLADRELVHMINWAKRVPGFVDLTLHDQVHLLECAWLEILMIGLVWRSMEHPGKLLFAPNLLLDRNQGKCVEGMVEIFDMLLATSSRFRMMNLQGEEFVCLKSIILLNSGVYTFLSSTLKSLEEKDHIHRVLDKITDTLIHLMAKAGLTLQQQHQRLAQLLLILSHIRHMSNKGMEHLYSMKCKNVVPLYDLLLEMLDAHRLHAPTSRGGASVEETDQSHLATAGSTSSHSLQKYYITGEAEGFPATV

Sequence of rxra_human RXRA, P19793 (P19793 whole entry): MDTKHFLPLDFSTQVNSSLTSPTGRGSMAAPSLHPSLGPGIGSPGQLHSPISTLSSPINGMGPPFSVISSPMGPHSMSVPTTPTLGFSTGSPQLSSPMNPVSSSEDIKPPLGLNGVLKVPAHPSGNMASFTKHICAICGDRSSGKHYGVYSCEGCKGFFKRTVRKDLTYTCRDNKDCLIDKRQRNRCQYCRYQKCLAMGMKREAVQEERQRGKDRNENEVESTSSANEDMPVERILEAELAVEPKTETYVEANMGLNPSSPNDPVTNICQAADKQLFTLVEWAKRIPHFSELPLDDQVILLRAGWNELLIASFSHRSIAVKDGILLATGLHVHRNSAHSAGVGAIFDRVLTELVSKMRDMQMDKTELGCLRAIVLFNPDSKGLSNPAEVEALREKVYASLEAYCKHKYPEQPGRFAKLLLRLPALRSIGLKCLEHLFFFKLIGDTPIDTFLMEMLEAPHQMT

effect of a mutation on the interaction (err1_human ESRRA, P11474 [1])	effect of a mutation on the interaction (err1_human ESRRA, P11474 [2])	effect of a mutation on the interaction (rxra_human RXRA, P19793)	effect of a mutation on the interaction (esr1_human ESR1, P03372)	Variant
decreasing interaction strength	with no effect	–	–	L147A;L148A
decreasing interaction strength	with no effect	–	–	L210A;L211A
disrupting interaction strength	–	–	–	L147A;L148A;L210A;L211A
–	–	disrupting interaction strength	decreasing interaction strength	L147A;L148A
–	–	decreasing interaction strength	with no effect	L210A;L211A
–	–	disrupting interaction strength	disrupting interaction strength	L147A;L148A;L210A;L211A
